Results from patent US20260275317A1, “CHIMERIC ENDOLYSINS WITH ACTIVITY AGAINST STREPTOCOCCI AND STAPHYLOCOCCI” (UNIVERSITEIT GENT, priority 2023, published 2026).

Columns and labels:
[1] = test system: MAC-T cells; type: cell-based, bovine; conditions: 2.5 μM
Experimental: MAC-T cells were seeded in a 6-well plate at 300.000 cells/well and grown to 100% confluency. Next, cell culture medium was replaced by prewarmed NC5 in DMEM (buffer exchange performed at 4-8° C. by means of a Pierce™ Protein Concentrator PES 10 kDa MWCO) and allowed to incubate during 1 h at 37° C. and 5.0% CO2. DMEM alone served as the negative control. Following incubation, the supernatant was aspirated and cells were washed 5× with prewarmed dPBS. Cells were then harvested, pelleted and washed as previously described, followed by lysis in ice-cold 0.1% triton X-100 (Sigma-Aldrich, USA) in dPBS. The cell lysates were denaturized and subjected to SDS-PAGE before blotting to a nitrocellulose membrane (Novolab, Belgium). The membrane was thereafter incubated during 1 h in dPBSM5 as blocking buffer. Subsequently, the primary antibody being mouse monoclonal IgG anti-HIS5 (Sigma-Aldrich, USA) was added to the blocking buffer at 1:2000 and allowed to incubate under the same conditions for another hour. The nitrocellulose membrane was then washed 3× with dPBST and incubated during 30 min with the secondary antibody being HRP conjugated goat monoclonal anti-mouse IgG (ImTec Diagnostics, Belgium) diluted 1:1000 in dPBST. […]

[2] = test system: stationary phase S. uberis; test: Turbidity reduction assay (TRA), S. uberis; type: cell-based, Streptococcus uberis
Experimental: (§1) Concerning the time killing assay, an overnight bacterial culture was diluted 1:10 for S. uberis, S. agalactiae-& dysgalactiae or 1:100 for S. aureus in PBS or UHT-pasteurized whole cow's milk. A volume of 10 μL thereof was combined with an equal amount of chimeric endolysin in PBS (or only PBS as negative control) in triplicate and incubated in a covered 96-well microtiter plate at 37° C. for 2 h. The dose was low (i.e. 0.25 μM), but this was chosen to differentiate between less and better performing variants, consequently allowing a ranking. Finally, these fractions were serially diluted 1:10 in PBS. 5 μL of each fraction was spotted on TSA or BHI-agar and incubated overnight at 37° C. The following day, colony forming units (CFU) were counted and converted to CFU/mL to calculate logarithmic reductions in comparison with the negative control. The relative scores were calculated by dividing the observed logarithmic reduction for each endolysin by the maximal reduction observed for that specific condition and strain. Next, this value was divided by the number of conditions and strains tested (i.e., 8=4 bacterial strains×2 conditions (PBS/UHT-milk)). As such, the best performing candidate in each individual assay received a score of 0.125 (=(1/1)/8). […] Turbidity reduction assays were performed by combining 100 μL of overnight grown bacterial cells with an equal volume of purified enzyme at the desired concentration. Bacterial cells were washed with PBS and resuspended in a 1:1 ratio with enzyme to an OD600 of approximately 1.0. Next, the OD600 was measured using a Tecan infinite 200 PRO plate reader (Tecan, Switzerland) every 15 seconds at 37° C., shaking the 96-well plate between each measurement.
(§2) Time killing and turbidity reduction assays were performed as previously described in 1.3.1.

[3] = test system: S. dysgalactiae; test: Time killing assay (TKA), S. dysgalactiae; type: cell-based, Streptococcus dysgalactiae; conditions: 0.3 μM
Experimental: as §1, with “A volume of 10 μL thereof was combined with an equal amount of chimeric endolysin in PBS (or only PBS as negative control) in triplicate and incubated in a covered 96-well microtiter plate at 37° C. for 2 h. The dose was low (i.e. 0.25 μM), but this was chosen to differentiate between less and better performing variants, consequently allowing a ranking.” left out
as §2
Time killing assays were performed as previously described in 1.3.1.

[4] = test system: S. agalactiae; test: Turbidity reduction assay (TRA), S. agalactiae; type: cell-based, Streptococcus agalactiae
Experimental: as §1, §2

B1: NC5: chimeric endolysin SEQ ID NO: 17; HIV-1 TAT + PlySs2 CHAP + Ply1081 CW_7 + PlySs9 amidase_3 (protein)
chain: MYGRKKRRQRRRGATTVNEALNNVRAQVGSGVSVGNGECYALASWYERMISPDATVGLGAGVGWVSGAIGDTISAKNIGSSYNWQANGWTVSTSGPFKAGQIVTLGATPGNPYGHVVIVEAVDGDRLTILEQNYGGKRYPVRNYYSAASYRQQVVHYITPPGTVAQSAPNLAGAGIDQLVQETLAGKYGNGEQRKAALGSQYQAVMAVINGKATAPKKTVDQLAQEVIQGKHGNGEDRKKSLGPDYDAVQKRVTEILKGSPSGNIPKTPSDAPKSEVVNSSTEPKTEETGANGKATDTKITKGSGKHLVICGHGQGRTGYDPGAVNAKLGITEAGKVRELSKLMSKYSGQQIDFITEQNVYDYRSITSIGKGYDSITELHFNAFNGSAKGTEVLIQSSLEADKEDMAILSLLSRYFQNRGIKKVDWLYNANQAASRGYTYRLVEIAFIDNEQDMAIFENKKEDIAKGLVSAITGVEVKTIVPSPPSSTVGSSGTPSKSIYLVGDSLRVLPHATHYQTGQKIANWVKGRTYKILQVKNVHQSNSKRAYLLDGIKSWVLEQDVEGTTKGHSKYHHHHHH
stability after incubation with MAC-T cells (SDS-PAGE of supernatant) [1]: neither disintegrated nor precipitated after incubation with MAC-T cells
lysis in comparative TRA versus NC3 and NC8 ([2]; 0.5 μM, S. uberis 0140J): lysed the bacterial cells faster and resulted in a higher reduction of the OD600
lysis speed (ΔOD600/min)/μM ([2]; Clinical S. uberis 1 (Unknown ST and GCC), 0.3 μM): 0.06 (ΔOD600/min)/μM
ΔOD600 ([2]; Clinical S. uberis 1 (Unknown ST and GCC), 1 h, 0.3 μM): 0.42
lysis speed (ΔOD600/min)/μM ([2]; Clinical S. uberis 2 (Unknown ST, GCC 5), 0.3 μM): 0.11 (ΔOD600/min)/μM
ΔOD600 ([2]; Clinical S. uberis 2 (Unknown ST, GCC 5), 1 h, 0.3 μM): 0.38
lysis speed (ΔOD600/min)/μM ([2]; Clinical S. uberis 3 (Unknown ST, GCC 5), 0.3 μM): 0.44 (ΔOD600/min)/μM
ΔOD600 ([2]; Clinical S. uberis 3 (Unknown ST, GCC 5), 1 h, 0.3 μM): 0.62
lysis speed (ΔOD600/min)/μM ([2]; Clinical S. uberis 4 (ST 815, GCC 143), 0.3 μM): 0.05 (ΔOD600/min)/μM
ΔOD600 ([2]; Clinical S. uberis 4 (ST 815, GCC 143), 1 h, 0.3 μM): 0.63
lysis speed (ΔOD600/min)/μM ([2]; Clinical S. uberis 5 (ST 944, GCC 5), 0.3 μM): 0.21 (ΔOD600/min)/μM
ΔOD600 ([2]; Clinical S. uberis 5 (ST 944, GCC 5), 1 h, 0.3 μM): 0.59
ΔOD600 ([2]; S. uberis 0140J, 0.3 μM): 0.57±0.00
lysis speed (ΔOD600/min)/μM, NC5 pairwise versus NC2 ([2]; S. uberis (sub)clinical isolates, 0.3 μM): significantly (p <0.01) faster
lysis speed (ΔOD600/min)/μM ([2]; Subclinical S. uberis 1 (ST 808, GCC 143), 0.3 μM): 0.43 (ΔOD600/min)/μM
ΔOD600 ([2]; Subclinical S. uberis 1 (ST 808, GCC 143), 1 h, 0.3 μM): 0.66
lysis speed (ΔOD600/min)/μM ([2]; Subclinical S. uberis 2 (Unknown ST and GCC), 0.3 μM): 0.11 (ΔOD600/min)/μM
ΔOD600 ([2]; Subclinical S. uberis 2 (Unknown ST and GCC), 1 h, 0.3 μM): 0.65
lysis speed (ΔOD600/min)/μM ([2]; Subclinical S. uberis 3 (Unknown ST, GCC 5), 0.3 μM): 0.39 (ΔOD600/min)/μM
ΔOD600 ([2]; Subclinical S. uberis 3 (Unknown ST, GCC 5), 1 h, 0.3 μM): 0.53
lysis speed (ΔOD600/min)/μM ([2]; Subclinical S. uberis 4 (Unknown ST and GCC), 0.3 μM): 0.28 (ΔOD600/min)/μM
ΔOD600 ([2]; Subclinical S. uberis 4 (Unknown ST and GCC), 1 h, 0.3 μM): 0.42
ΔLog10 (CFU/mL) ([3]; S. dysgalactiae 1, 1 h): 1.77 Log10 (CFU/mL)
ΔLog10 (CFU/mL) ([3]; S. dysgalactiae 2, 1 h): 0.15 Log10 (CFU/mL)
ΔLog10 (CFU/mL) ([3]; S. dysgalactiae 3, 1 h): 1.11 Log10 (CFU/mL)
log10 reduction ([3]; mastitis-derived S. dysgalactiae, versus PBS): 1.11±0.17 log10
Δ log10, reductions up to ([3]; three clinical S. dysgalactiae isolates): ≤ 1.77±0.43 log10
lysis speed (ΔOD600/min)/μM ([4]; S. agalactiae 1, 0.3 μM): 0.15 (ΔOD600/min)/μM
ΔOD600 ([4]; S. agalactiae 1, 1 h, 0.3 μM): 0.42
lysis speed (ΔOD600/min)/μM ([4]; S. agalactiae 2, 0.3 μM): 0.08 (ΔOD600/min)/μM
ΔOD600 ([4]; S. agalactiae 2, 1 h, 0.3 μM): 0.39
lysis speed (ΔOD600/min)/μM ([4]; S. agalactiae 3, 0.3 μM): 0.12 (ΔOD600/min)/μM
ΔOD600 ([4]; S. agalactiae 3, 1 h, 0.3 μM): 0.41
ΔOD600, reductions up to ([4]; three clinical S. agalactiae isolates, 0.3 μM): up to 0.39±0.02
